Experimental data taken from the supplement of paper PMC10567573.

B1: SPOPL (parent)
chain: YTGRAPNLDKMADNLLAAADKYAL

Variants of: B1
Experiment: protein stability index of a GFP-peptide fusion (GPS, HEK-293T) (PSI 1-6); higher = more stable
Conditions: c terminus: a fixed tail appended
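Also: lentivirally expressed fusions sorted by FACS into six bins by GFP to DsRed ratio, PSI derived from sequencing read proportions per bin multiplied by bin number.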

Protein stability index, by site and new letter:
A23: I 1.65; E 2.77; P 2.24; V 1.54; W 1.22; H 1.78; G 1.83
N14: I 1.85; A 1.69; V 2.43; R 2.39; D 2.25; Y 1.86; P 2.2; K 1.73; T 1.45; W 1.45; F 1.84; E 2.16; H 1.94
L16: K 3.18; Y 2.06; F 1.22; S 1.84; D 3.83; Q 2.73; P 2.32; I 2.33; G 2.94; R 2.65; N 2.22; C 1.59; H 2.97; A 2.24
R4: H 2.04; F 2.12; V 1.88; E 3.04; A 2.38; P 2.75; Y 2.02; S 2.77; N 2.09; K 2.41; I 1.96; M 1.69; Q 2.86; T 1.84; G 2.74
A12: P 2.54; Y 1.77; Q 2.07; L 1.53; R 1.56; W 1.32; C 2.56; T 2.97; K 1.97; F 1.58; D 2.92; N 2.88; G 2.36; E 2.05; H 2.33; I 2.87; M 2.64
L24: A 2.02; Y 1.89; T 2.42; I 2.02; F 2.01; H 2.49; P 2.17; D 3.62; G 2.78; N 2.66; R 2.24; Q 2.16; M 2.33; W 1.86; E 3.11
L15: H 2.38; N 2.74; G 2.35; I 2.25; P 2.43; R 2.43; Y 1.98; D 2.83; S 3.6; E 2.92; M 2.19; C 2.87; V 2.14; T 2.32; K 3.64
L8: G 2.81; V 3.88; T 2.55; I 1.85; D 3; N 2.94; K 2.16; Q 2.58; C 2.28; M 1.8; P 3.29; R 2.93; Y 1.36
T2: I 1.98; N 2.93; G 2.79; E 3.81; H 2.4; V 2.97; M 2.24; A 1.32; K 2.49; S 2.75; Y 2.15; L 2.76; P 2.75; F 2.47; Q 2.29
Y1: E 4.07; C 3.08; M 3.06; P 3.65; D 4.63; K 3.61; I 2.16; N 3.81; A 2.15; L 2.63; V 1.76; Q 4.13; W 2.94; G 4.11
M11: Y 1.31; T 2.62; C 1.55; W 2.21; F 1.73; E 2.56; G 1.62; Q 2.34; I 2.32; P 2.56; V 3.05; D 2.42; S 2.62; K 2.15; H 2.47
A18: G 2.61; L 2.7; T 1.99; P 2.18; D 2.62; Y 2.25; N 2.01; M 1.9; R 1.56; Q 3.07; K 1.77; E 2.42; C 1.51; S 2.18
